# US7554012B2, “Plants and plant cells exhibiting resistance to AMPA, and methods for making the same” (priority 1998, dated 2009)
# Tested on: AMPA acyltransferase activity
# Assay: AMPA acyltransferase HPLC assay of bacterial lysates
# Type: biochemical
# Settings: lysates of induced E. coli JM101 transformants
molecule,measurement,value
CTP-PhnO peptide: chloroplast transit peptide fused to PhnO (SEQ ID NO:12) (protein) MASSMLSSATMVASPAQATMVAPFNGLKSSAAFPATRKANNDITSITSNGGRVNCMQVWPPIGKKKFETLSYLPDLTDSGGRVNCMQAMAACELRPATQYDTDAVYALICELKQAEFDHHAFRVGFNANLRDPNMRYHLALLDGEVVGMIGLHLQFHLHHVNWIGEIQELVVMPQARGLNVGSKLLAWAEEEARQAGAEMTELSTNVKRHDAHRFYLREGYEQSHFRFTKAL,AMPA acyltransferase activity of cell lysates,retain full enzymatic acyltransferase activity
